The target in this test is CD86 mutant 1040 conjugated to an anti-CD40 antibody as part of a bispecific molecule (human). The experiment in a line: inhibition ELISA: CD86 mutant 1040 on an anti-CD40 antibody pre-incubated with the soluble CTLA-4 in a dilution series, mixture added to coated human CTLA-4 (the competitor). In general terms: ELISA stands for enzyme-linked immunosorbent assay.
CD86 mutant 1040 conjugated to an anti-CD40 antibody as part of a bispecific molecule (human), sequence (chain, as listed by the source limits assumed): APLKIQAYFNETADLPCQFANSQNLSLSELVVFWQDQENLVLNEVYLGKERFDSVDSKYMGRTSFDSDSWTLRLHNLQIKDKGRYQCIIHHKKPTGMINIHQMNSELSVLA

For “soluble murine CTLA-4 (R&D systems) (from UniProt P09793 36-162) (receptor)”, the IC50 (read off the curve) stood at 0.8 µg/mL.
As for “CTLA4-Fc (Fitzgerald, #30R-CD152) (from UniProt P16410 38-152) (Fc fusion)”, the IC50 (read off the curve) worked out at 1 µg/mL.

For the origin of these results see patent US20210238298A1.
